{"source": "paper PMC3006652", "molecular_target": "full-length UvsX (UvsX_(1–391)) (bacteriophage T4) (UniProt P04529)", "experiment": "non-reducing SDS PAGE"}
{"substance": "full-length UvsX (UvsX_(1–391)) (from UniProt P04529 1-391) (natural protein)", "values": [{"measurement": "ratio of dimers and monomers under oxidizing conditions", "value": 0.5}, {"measurement": "stoichiometry N", "value": 2}]}
